T1: hPRLR.mFc (soluble dimeric human PRLR) (human)
T1 construct: dimeric PRLR construct
T1 chain: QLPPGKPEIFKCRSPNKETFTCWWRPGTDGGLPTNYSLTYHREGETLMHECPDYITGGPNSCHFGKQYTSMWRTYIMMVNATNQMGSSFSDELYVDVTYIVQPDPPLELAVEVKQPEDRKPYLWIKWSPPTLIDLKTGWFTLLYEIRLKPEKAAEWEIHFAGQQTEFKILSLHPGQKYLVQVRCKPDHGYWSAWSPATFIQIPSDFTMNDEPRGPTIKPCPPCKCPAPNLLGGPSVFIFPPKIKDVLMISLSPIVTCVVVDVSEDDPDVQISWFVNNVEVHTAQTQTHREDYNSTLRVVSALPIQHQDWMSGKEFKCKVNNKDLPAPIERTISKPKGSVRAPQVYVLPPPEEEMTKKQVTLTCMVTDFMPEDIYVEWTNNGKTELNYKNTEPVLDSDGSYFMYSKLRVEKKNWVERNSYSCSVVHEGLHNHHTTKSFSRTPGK

T2: mfPRLR.mmh (soluble monomeric macaca fascicularis PRLR) (macaca fascicularis)
T2 construct: soluble monomeric PRLR protein; also called macaca fascicularis (mf) PRLR.mmh; monkey PRLR
T2 chain: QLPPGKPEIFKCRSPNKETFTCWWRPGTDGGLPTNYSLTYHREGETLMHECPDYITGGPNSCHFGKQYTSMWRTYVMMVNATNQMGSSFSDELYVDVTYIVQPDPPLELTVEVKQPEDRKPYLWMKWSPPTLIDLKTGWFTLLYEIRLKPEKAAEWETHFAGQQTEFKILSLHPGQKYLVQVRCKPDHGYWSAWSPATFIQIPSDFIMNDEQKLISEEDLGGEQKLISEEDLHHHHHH

T3: hPRLR.mmh (soluble monomeric human PRLR) (human)
T3 construct: soluble monomeric PRLR protein
T3 chain: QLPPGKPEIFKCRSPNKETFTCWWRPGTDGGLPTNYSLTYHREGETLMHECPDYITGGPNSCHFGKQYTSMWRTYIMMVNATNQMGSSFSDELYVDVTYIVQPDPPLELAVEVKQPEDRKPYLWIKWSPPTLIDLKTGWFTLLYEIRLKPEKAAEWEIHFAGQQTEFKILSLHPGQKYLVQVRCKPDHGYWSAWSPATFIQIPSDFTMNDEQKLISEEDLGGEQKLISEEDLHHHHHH

T4: mouse PRLR construct with an HA tag on HEK293/mPRLR cells (mouse, UniProt Q08501 20-608)
T4 construct: whole, on cells; stably transfected into HEK293
T4 sequence (looked up): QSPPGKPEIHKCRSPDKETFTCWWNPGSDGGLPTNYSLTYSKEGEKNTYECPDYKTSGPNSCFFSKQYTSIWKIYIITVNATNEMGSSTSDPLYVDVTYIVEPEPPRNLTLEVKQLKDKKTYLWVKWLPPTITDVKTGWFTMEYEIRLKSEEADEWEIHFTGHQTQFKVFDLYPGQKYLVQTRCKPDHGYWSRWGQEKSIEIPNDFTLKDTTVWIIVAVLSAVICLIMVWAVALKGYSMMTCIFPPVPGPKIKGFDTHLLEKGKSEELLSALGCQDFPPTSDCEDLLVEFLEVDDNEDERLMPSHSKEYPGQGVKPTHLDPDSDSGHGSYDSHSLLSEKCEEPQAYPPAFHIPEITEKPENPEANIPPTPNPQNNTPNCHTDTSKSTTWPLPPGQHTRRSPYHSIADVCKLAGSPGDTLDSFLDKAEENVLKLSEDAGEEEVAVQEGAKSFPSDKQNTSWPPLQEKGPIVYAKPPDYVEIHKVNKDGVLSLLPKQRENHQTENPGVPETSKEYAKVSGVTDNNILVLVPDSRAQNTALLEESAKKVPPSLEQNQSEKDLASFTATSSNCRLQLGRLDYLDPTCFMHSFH

T5: human PRLR on cells (endogenous on T47D, T47D#11, MCF7); introduced in HEK293/hPRLR/STAT5-Luc, 293/hPRLR, … (human, UniProt P16471 25-622)
T5 construct: no tag is stated for these lines; also called prolactin receptor
T5 sequence: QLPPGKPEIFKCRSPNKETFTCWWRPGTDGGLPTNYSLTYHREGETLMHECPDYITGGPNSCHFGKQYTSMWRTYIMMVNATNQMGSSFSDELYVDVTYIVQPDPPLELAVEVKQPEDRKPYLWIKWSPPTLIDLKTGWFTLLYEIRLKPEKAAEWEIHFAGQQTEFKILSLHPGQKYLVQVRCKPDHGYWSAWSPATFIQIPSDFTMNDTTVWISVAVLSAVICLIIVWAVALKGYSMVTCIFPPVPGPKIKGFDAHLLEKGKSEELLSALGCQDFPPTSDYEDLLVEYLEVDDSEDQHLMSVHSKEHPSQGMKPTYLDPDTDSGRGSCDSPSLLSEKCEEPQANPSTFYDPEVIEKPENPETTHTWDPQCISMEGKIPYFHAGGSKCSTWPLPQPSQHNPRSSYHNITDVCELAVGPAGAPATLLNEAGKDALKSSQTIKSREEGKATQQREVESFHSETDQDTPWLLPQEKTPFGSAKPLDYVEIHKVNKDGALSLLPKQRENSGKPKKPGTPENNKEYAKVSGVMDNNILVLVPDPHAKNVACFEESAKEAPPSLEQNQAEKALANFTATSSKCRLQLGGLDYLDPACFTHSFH


Legend:
[1] = target: T1, hPRLR.mFc (soluble dimeric human PRLR); assay: SPR (Biacore), antibody capture, 37 C
Procedure: (§1) Measurements were conducted on a T200 Biacore instrument. Kinetic association (kₐ) and dissociation (kd) rate constants were determined by processing and fitting the data to a 1:1 binding model using Scrubber 2.0 curve fitting software.

[2] = target: T2, mfPRLR.mmh (soluble monomeric macaca …); assay: SPR (Biacore), antibody capture, 37 C
Procedure: as §1

[3] = target: T3, hPRLR.mmh (soluble monomeric human PRLR); assay: SPR (Biacore), antibody capture, 37 C
Procedure: as §1

[4] = target: T4, mouse PRLR construct with an HA tag on …; assay: FACS on HEK293/mPRLR cells
[5] = target: T5, human PRLR on cells (endogenous on …); assay: FACS on T47D cells

Binder | Kd [1] [nM] | T 1/2 [1] [min] | koff [1] [s⁻¹] | kon [1] [M⁻¹ s⁻¹] | Kd [2] [nM] | T 1/2 [2] [min] | koff [2] [s⁻¹] | kon [2] [M⁻¹ s⁻¹] | Kd [3] [nM] | T 1/2 [3] [min] | koff [3] [s⁻¹] | kon [3] [M⁻¹ s⁻¹] | FACS Cell Binding (Fold Above Background) [4] [fold] | FACS Cell Binding (Fold Above Background) [5] [fold]
H1H6953N (antibody, human IgG1, V domains shown, also called H1M6953N) VH: EVQLLESGGGLVQPGGTLRLSCAASGFTFSAYAMSWVRQAPGKGLEWVSSINVRAGDTYYADSVKGRFTISRDNSKNTLFLLMNSLRAEDTAAYYCAKARYSSNWGFDFWGQGTLVTVSS VL: DIVMTQSPDSLTVSLGARTTINCQSSQTILHSSNNHNYLAWYQQKPGLPPKLLIYWSSTRESGVPDRFSGSGSGTDFTLTISSLQAEDVAIYYCQQYSNTPYTFGQGTKLEIN | 0.116 | 68 | 0.00017 | 1.47e+06 | 2.71 | 4.5 | 0.00256 | 947000 | 1.11 | 9.4 | 0.00122 | 1.1e+06 | 2 | 40
H1H6795P (antibody, human IgG1, V domains shown, human IgG1 Fc (H1H)) VH: QVQLVQSGAEVKKPGASVKVSCKASGYTFGTSGITWVRQAPGQGLEWMGWSSAYNGKTDYAQKFQDRVTMTTDTSTTTGYMEMRSLTSDDTAVYYCTTVVRRPFDFWGQGTLVTVSS VL: DIQMTQSPSSLSASVGDRVTITCRASQDINNFLAWFQQKPGKAPKSLIYAASSLQSGVPSKFSGGGSGTDFALTISSLQPEDFATYYCQQYSSYPITFGQGTRLEIK | 0.0402 | 149 | 7.77e-05 | 1.94e+06 | 6.16 | 2 | 0.00599 | 973000 | 3.81 | 2 | 0.0052 | 1.36e+06 | 1 | 34
H1H6807P (antibody, V domains shown, human IgG1 Fc (H1H)) VH: QVQLVESGGGVVQPGRSLRLSCAASGFTFSDYNMHWVRQAPGKGLEWVAVIWYDGSNKHYADSVKGRFTISRDNSKNTLYLQMNSLRAEDTAVYYCARDGFTIFGMVLDYWGQGTLVTVSS VL: not shown | 0.09 | 105 | 0.00011 | 1.22e+06 | 0.448 | 32 | 0.000359 | 802000 | 0.31 | 34 | 0.000336 | 1.08e+06 | 2 | 34
H1H6790P (antibody, human IgG1, V domains shown, human IgG1 Fc (H1H)) VH: EVQLVESGGGLVQPGGSLRLSCAASGFTFSSYAMTWVRQAPGKGLEWVSAITGSVGNTYYADSVKGRFTISRDNSKNTLYLQMNSLGAEDTAEYYCAKGAGMTTNWYLDLWGRGTLVTVSS VL: DIVMTQSPDSLAVSLGARATINCKSSQSVLYSSNNQNYLTWYQQKPGQPPKLLIKWASTRESGVPDRFSGSGSGTDFTLTISSLQAEDVAVYYCQQYASSPYTFGQGTKLEIK | 0.306 | 58 | 0.000198 | 646000 | 5.22 | 4 | 0.00321 | 615000 | 3.5 | 4 | 0.00329 | 940000 | 1 | 34
H1H6797P (antibody, human IgG1, V domains shown, human IgG1 Fc (H1H)) VH: EVQLVESGGGLVQPGGSLRLSCIVSGFTFSGSWMSWVRQLPGKGLEWVANIKEDGSDSYYVDSVEGRFTISRDNAKSSLYLQMNSLRVDDTAVYFCARARTVPLHYWGQGTLVTVSS VL: DIQMTQSPSTLSASVGDRVTITCRASQSINIWLAWYQQKPGKAPKLLIYRASYLESGVPSSFAGGGSGTEFTLTISSLQPDDFGTYYCQHYNSYPFTFGQGTKLEIK | 0.0691 | 93 | 0.000125 | 1.8e+06 | 9.9 | 1 | 0.00906 | 914000 | 6.37 | 1 | 0.00822 | 1.29e+06 | 2 | 38
H1H6804P (antibody, human IgG1, V domains shown, human IgG1 Fc (H1H)) VH: QVTLKESGPVLVKPTQTLSLTCTVSGFSLSDAGMGVSWIRQPPGKALEWLAHIFSNDGKSYSTSLKSRLTISKDTSKRQVVLTMTNMDPVDTATYYCARIRTGTYSLYLDYWGQGTLVTVSS VL: DIQMTQSPSSLSASVGDRVTITCRASQSINSYLNWYQQKPGKAPKLLLYFASSLQSGVPSRFSGSGSGTDFTLTISSLQPEDFASYYCQESYSTPWTFGQGTKVEIK | 0.369 | 56 | 0.000205 | 554000 | 9.35 | 3 | 0.00426 | 455000 | 6.34 | 3 | 0.00385 | 607000 | 1 | 34
H1H6966N (antibody, human IgG1, V domains shown, also called H2M6966N) VH: QVQLVQSGAEVQKPGASVKVSCKVSGYTLTALSIHWVRQAPGKGLEWMGNFDPGDGETIHAQKFQGRVTMTGDTSTDTAYMELSSLRSEDTAVYYCVGVTFDYWGQGTLVTVSS VL: EIVMTQSPATLSVSPGERATLSCRASQSVASNLAWYQQKPGQAPRLLLYGASTRATGIPARFSGSGSGTEFTLTISSLQSEDFALYYCQHYNNWPLTFGGGTKVEIK | 0.0672 | 91.3 | 0.000127 | 1.88e+06 | 0.982 | 9.6 | 0.0012 | 1.22e+06 | 0.607 | 12 | 0.00096 | 1.58e+06 | 1 | 31
H1H6960N (antibody, human IgG1, V domains shown, also called H2M6960N) VH: EVQLVESGGGLVKPGGSLRLSCAASGITFSSYSMNWVRQAPGKGLEWVSSISTRSSLIHYADSVKGRFTISRDNAKNSLYLQMNSLRDEDTAVYYCARWDAAAAFDYWGQGTLVIVSS VL: DIQLTQSPSFLSASVGDRVTITCWASQGISSYLAWYQQKPGKAPKLLIYVASTLQSGVPSRFSGSGSGTEFTLTISSLQPEDFATYFCQQLNSYPLTFGGGTKVEIK | 0.5 | 78.7 | 0.000147 | 294000 | 14.9 | 9 | 0.00128 | 86400 | 16.2 | 5.8 | 0.00198 | 122000 | 1 | 33

From patent US20180185504A1 (Regeneron, published 2018)
